The values that follow come from PMC11371828 (Nature Communications, 2024).

For experiment [1], the target named is T1, 6xHis-IKKβ(1-669) EE K480E (human, UniProt O14920 1-669, S177E | S181E | K480E).
T1 sequence (looked up): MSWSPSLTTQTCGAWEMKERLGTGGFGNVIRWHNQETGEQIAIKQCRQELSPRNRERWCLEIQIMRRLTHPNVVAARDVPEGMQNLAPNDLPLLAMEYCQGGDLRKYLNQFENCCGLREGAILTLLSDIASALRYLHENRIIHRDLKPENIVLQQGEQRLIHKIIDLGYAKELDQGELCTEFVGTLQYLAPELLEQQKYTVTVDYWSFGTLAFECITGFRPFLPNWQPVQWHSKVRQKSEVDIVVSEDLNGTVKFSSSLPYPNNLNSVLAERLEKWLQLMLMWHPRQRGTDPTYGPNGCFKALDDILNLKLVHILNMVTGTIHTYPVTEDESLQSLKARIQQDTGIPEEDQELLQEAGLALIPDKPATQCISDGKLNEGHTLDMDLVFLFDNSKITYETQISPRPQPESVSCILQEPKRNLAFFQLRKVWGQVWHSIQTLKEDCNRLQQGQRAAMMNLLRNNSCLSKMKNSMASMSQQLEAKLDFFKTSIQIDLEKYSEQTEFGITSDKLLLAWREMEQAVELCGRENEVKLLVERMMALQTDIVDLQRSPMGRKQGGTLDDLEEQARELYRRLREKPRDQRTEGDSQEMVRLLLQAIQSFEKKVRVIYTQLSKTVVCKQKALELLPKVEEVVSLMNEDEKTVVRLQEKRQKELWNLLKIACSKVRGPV
The experiment can be described thus: pull-down.

Experiment [2] deals with T2, 6xHis-IKKβ(1-669) EE R460E (human, UniProt O14920 1-669, S177E | S181E | R460E).
T2 sequence (looked up): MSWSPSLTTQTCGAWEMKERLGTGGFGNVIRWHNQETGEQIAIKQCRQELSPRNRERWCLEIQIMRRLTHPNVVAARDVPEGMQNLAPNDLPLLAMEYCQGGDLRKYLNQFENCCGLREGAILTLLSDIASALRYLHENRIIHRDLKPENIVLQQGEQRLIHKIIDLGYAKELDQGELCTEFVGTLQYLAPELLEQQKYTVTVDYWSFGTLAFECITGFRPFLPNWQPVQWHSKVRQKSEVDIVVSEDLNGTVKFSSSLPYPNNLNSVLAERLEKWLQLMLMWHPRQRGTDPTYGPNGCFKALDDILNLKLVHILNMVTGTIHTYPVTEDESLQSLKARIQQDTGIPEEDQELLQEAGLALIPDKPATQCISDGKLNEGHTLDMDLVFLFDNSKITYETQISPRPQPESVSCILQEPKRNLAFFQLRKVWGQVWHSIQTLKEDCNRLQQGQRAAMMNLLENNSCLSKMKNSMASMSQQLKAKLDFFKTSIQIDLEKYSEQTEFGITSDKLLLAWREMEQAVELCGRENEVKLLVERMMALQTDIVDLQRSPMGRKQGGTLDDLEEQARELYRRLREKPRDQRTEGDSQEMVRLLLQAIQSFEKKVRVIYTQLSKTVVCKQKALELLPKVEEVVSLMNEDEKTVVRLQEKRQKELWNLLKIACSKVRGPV
Description: pull-down.

As for DELPYDDCVFGGQRLTL (peptide, UniProt P25963 301-317, looked up) [MBP-IκBα pep(s)], the binding result in experiment [1] and in experiment [2] was “binds” throughout.
